# pKd: −log10 of the molar value.
# Molecular target: HA-tagged Patched 1 (Ptc1), expressed in 293T cells (UniProt Q61115)
# Test: pull-down
# UniProt Q61115, sequence (Q61115 whole entry): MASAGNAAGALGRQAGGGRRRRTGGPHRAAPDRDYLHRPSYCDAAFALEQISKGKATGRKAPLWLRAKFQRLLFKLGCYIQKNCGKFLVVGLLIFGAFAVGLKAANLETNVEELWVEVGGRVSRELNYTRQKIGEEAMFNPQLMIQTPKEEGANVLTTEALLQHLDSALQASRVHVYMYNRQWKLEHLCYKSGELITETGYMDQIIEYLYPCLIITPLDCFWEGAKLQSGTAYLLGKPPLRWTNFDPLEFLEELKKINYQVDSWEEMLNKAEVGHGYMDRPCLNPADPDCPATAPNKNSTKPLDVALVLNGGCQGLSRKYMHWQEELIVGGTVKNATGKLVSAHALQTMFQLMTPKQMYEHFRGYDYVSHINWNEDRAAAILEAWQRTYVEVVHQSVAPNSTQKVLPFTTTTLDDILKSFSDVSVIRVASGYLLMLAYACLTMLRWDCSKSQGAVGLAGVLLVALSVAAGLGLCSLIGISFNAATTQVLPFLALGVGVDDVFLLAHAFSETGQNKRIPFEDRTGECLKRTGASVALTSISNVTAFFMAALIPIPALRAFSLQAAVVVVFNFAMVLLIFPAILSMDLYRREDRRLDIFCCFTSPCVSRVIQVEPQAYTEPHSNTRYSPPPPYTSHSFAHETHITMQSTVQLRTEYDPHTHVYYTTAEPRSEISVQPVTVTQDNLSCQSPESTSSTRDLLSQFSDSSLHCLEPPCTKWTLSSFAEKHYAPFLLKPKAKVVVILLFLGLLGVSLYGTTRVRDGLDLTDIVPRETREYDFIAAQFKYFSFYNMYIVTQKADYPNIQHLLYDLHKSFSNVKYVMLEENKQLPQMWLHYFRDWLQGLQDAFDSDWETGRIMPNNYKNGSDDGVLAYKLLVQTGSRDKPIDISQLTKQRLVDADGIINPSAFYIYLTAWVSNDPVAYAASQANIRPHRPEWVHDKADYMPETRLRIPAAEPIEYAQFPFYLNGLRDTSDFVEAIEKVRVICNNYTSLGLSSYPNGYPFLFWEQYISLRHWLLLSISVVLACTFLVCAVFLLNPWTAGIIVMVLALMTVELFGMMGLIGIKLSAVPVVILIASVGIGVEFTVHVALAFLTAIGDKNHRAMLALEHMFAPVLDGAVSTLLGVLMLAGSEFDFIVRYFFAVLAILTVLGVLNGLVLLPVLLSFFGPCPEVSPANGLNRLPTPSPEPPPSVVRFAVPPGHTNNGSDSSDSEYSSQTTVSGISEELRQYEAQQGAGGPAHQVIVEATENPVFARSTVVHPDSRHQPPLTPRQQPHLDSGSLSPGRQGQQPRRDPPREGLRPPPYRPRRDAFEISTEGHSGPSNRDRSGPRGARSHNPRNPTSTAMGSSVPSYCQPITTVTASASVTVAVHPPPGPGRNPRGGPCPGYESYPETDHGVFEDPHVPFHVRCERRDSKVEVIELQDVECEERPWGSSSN
substance,measurement,value
GPC5-AP fusion protein in conditioned medium,pKd,7.43
